The supplement of paper PMC10567573

B1: DYRK1B (parent)
chain: YQGPGTRRLQEVLGVQTGGPGGRR

Variants of: B1
Test: protein stability index of a GFP-peptide fusion (GPS, HEK-293T) (PSI 1-6); higher = more stable
Settings: c terminus: a fixed tail appended
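Note: lentivirally expressed fusions sorted by FACS into six bins by GFP to DsRed ratio, PSI derived from sequencing read proportions per bin multiplied by bin number.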

Variant	protein stability index
YQGPSTRRLQEVLGVQTGGPGGRR [G5S]	3.42
YQGPTTRRLQEVLGVQTGGPGGRR [G5T]	3.22
YQGPVTRRLQEVLGVQTGGPGGRR [G5V]	3.4
YQGPWTRRLQEVLGVQTGGPGGRR [G5W]	1.08
YQGPYTRRLQEVLGVQTGGPGGRR [G5Y]	2.34
YQGPGARRLQEVLGVQTGGPGGRR [T6A]	2.71
YQGPGCRRLQEVLGVQTGGPGGRR [T6C]	2.32
YQGPGDRRLQEVLGVQTGGPGGRR [T6D]	3.79
YQGPGERRLQEVLGVQTGGPGGRR [T6E]	3.47
YQGPGFRRLQEVLGVQTGGPGGRR [T6F]	2.88
YQGPGGRRLQEVLGVQTGGPGGRR [T6G]	3.32
YQGPGHRRLQEVLGVQTGGPGGRR [T6H]	2.67
YQGPGIRRLQEVLGVQTGGPGGRR [T6I]	2.87
YQGPGKRRLQEVLGVQTGGPGGRR [T6K]	2.33
YQGPGLRRLQEVLGVQTGGPGGRR [T6L]	2.37
YQGPGMRRLQEVLGVQTGGPGGRR [T6M]	3.28
YQGPGNRRLQEVLGVQTGGPGGRR [T6N]	2.68
YQGPGPRRLQEVLGVQTGGPGGRR [T6P]	3.04
YQGPGQRRLQEVLGVQTGGPGGRR [T6Q]	3.4
YQGPGRRRLQEVLGVQTGGPGGRR [T6R]	3.51
YQGPGSRRLQEVLGVQTGGPGGRR [T6S]	2.54
YQGPGVRRLQEVLGVQTGGPGGRR [T6V]	3.02
YQGPGWRRLQEVLGVQTGGPGGRR [T6W]	2.17
YQGPGYRRLQEVLGVQTGGPGGRR [T6Y]	1.77

Variant	protein stability index
YQGPGTARLQEVLGVQTGGPGGRR [R7A]	3.68
YQGPGTCRLQEVLGVQTGGPGGRR [R7C]	1.51
YQGPGTDRLQEVLGVQTGGPGGRR [R7D]	3.7
YQGPGTERLQEVLGVQTGGPGGRR [R7E]	4.05
YQGPGTFRLQEVLGVQTGGPGGRR [R7F]	2.04
YQGPGTGRLQEVLGVQTGGPGGRR [R7G]	3.37
YQGPGTHRLQEVLGVQTGGPGGRR [R7H]	3.42
YQGPGTIRLQEVLGVQTGGPGGRR [R7I]	3.57
YQGPGTKRLQEVLGVQTGGPGGRR [R7K]	3.06
YQGPGTMRLQEVLGVQTGGPGGRR [R7M]	3.21
YQGPGTNRLQEVLGVQTGGPGGRR [R7N]	2.65
YQGPGTPRLQEVLGVQTGGPGGRR [R7P]	3.5
YQGPGTQRLQEVLGVQTGGPGGRR [R7Q]	3.76
YQGPGTSRLQEVLGVQTGGPGGRR [R7S]	3.45
YQGPGTTRLQEVLGVQTGGPGGRR [R7T]	3.54
YQGPGTVRLQEVLGVQTGGPGGRR [R7V]	3.03
YQGPGTWRLQEVLGVQTGGPGGRR [R7W]	1.77
YQGPGTYRLQEVLGVQTGGPGGRR [R7Y]	3.1
YQGPGTRALQEVLGVQTGGPGGRR [R8A]	3.24
YQGPGTRCLQEVLGVQTGGPGGRR [R8C]	2.21
YQGPGTRDLQEVLGVQTGGPGGRR [R8D]	3.55
YQGPGTRELQEVLGVQTGGPGGRR [R8E]	4.51
YQGPGTRGLQEVLGVQTGGPGGRR [R8G]	3.14
YQGPGTRHLQEVLGVQTGGPGGRR [R8H]	4.21

Variant	protein stability index
YQGPGTRILQEVLGVQTGGPGGRR [R8I]	2.75
YQGPGTRKLQEVLGVQTGGPGGRR [R8K]	2.9
YQGPGTRLLQEVLGVQTGGPGGRR [R8L]	1.91
YQGPGTRMLQEVLGVQTGGPGGRR [R8M]	2.35
YQGPGTRNLQEVLGVQTGGPGGRR [R8N]	3.45
YQGPGTRPLQEVLGVQTGGPGGRR [R8P]	3.49
YQGPGTRQLQEVLGVQTGGPGGRR [R8Q]	3.67
YQGPGTRSLQEVLGVQTGGPGGRR [R8S]	3.73
YQGPGTRTLQEVLGVQTGGPGGRR [R8T]	2.97
YQGPGTRVLQEVLGVQTGGPGGRR [R8V]	2.66
YQGPGTRWLQEVLGVQTGGPGGRR [R8W]	3.27
YQGPGTRYLQEVLGVQTGGPGGRR [R8Y]	1.91
YQGPGTRRAQEVLGVQTGGPGGRR [L9A]	4.03
YQGPGTRRCQEVLGVQTGGPGGRR [L9C]	3.21
YQGPGTRRDQEVLGVQTGGPGGRR [L9D]	3.94
YQGPGTRREQEVLGVQTGGPGGRR [L9E]	3.79
YQGPGTRRFQEVLGVQTGGPGGRR [L9F]	2.67
YQGPGTRRGQEVLGVQTGGPGGRR [L9G]	4.47
YQGPGTRRHQEVLGVQTGGPGGRR [L9H]	2.81
YQGPGTRRIQEVLGVQTGGPGGRR [L9I]	2.97
YQGPGTRRKQEVLGVQTGGPGGRR [L9K]	4.06
YQGPGTRRMQEVLGVQTGGPGGRR [L9M]	3.71
YQGPGTRRNQEVLGVQTGGPGGRR [L9N]	3.61
YQGPGTRRPQEVLGVQTGGPGGRR [L9P]	4

Variant	protein stability index
YQGPGTRRQQEVLGVQTGGPGGRR [L9Q]	4.31
YQGPGTRRRQEVLGVQTGGPGGRR [L9R]	3.9
YQGPGTRRSQEVLGVQTGGPGGRR [L9S]	4.65
YQGPGTRRTQEVLGVQTGGPGGRR [L9T]	4.27
YQGPGTRRVQEVLGVQTGGPGGRR [L9V]	3.75
YQGPGTRRWQEVLGVQTGGPGGRR [L9W]	1.36
YQGPGTRRYQEVLGVQTGGPGGRR [L9Y]	3.06
YQGPGTRRLAEVLGVQTGGPGGRR [Q10A]	1.95
YQGPGTRRLCEVLGVQTGGPGGRR [Q10C]	2.72
YQGPGTRRLDEVLGVQTGGPGGRR [Q10D]	3.3
YQGPGTRRLEEVLGVQTGGPGGRR [Q10E]	3.82
YQGPGTRRLFEVLGVQTGGPGGRR [Q10F]	2.34
YQGPGTRRLGEVLGVQTGGPGGRR [Q10G]	1.96
YQGPGTRRLHEVLGVQTGGPGGRR [Q10H]	2.98
YQGPGTRRLIEVLGVQTGGPGGRR [Q10I]	2.66
YQGPGTRRLKEVLGVQTGGPGGRR [Q10K]	3.3
YQGPGTRRLLEVLGVQTGGPGGRR [Q10L]	2.28
YQGPGTRRLMEVLGVQTGGPGGRR [Q10M]	2.82
YQGPGTRRLNEVLGVQTGGPGGRR [Q10N]	3.85
YQGPGTRRLPEVLGVQTGGPGGRR [Q10P]	4.21
YQGPGTRRLREVLGVQTGGPGGRR [Q10R]	2.91
YQGPGTRRLSEVLGVQTGGPGGRR [Q10S]	3.57
